Measurements taken from PMC5892705.

How the values were obtained:
[1] = target: human oxytocin receptor (human) (UniProt P30559)
[2] = target: human vasopressin V1a receptor (human) (UniProt P37288)
[3] = target: human oxytocin receptor (human) (UniProt P30559); remark: listed apart in the source

Oxytocin, sequence (P01178 whole entry, looked up): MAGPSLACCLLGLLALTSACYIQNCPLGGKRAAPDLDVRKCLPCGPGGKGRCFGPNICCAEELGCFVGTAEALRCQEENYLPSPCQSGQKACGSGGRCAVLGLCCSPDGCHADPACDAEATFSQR
human oxytocin receptor (human), sequence (P30559 whole entry): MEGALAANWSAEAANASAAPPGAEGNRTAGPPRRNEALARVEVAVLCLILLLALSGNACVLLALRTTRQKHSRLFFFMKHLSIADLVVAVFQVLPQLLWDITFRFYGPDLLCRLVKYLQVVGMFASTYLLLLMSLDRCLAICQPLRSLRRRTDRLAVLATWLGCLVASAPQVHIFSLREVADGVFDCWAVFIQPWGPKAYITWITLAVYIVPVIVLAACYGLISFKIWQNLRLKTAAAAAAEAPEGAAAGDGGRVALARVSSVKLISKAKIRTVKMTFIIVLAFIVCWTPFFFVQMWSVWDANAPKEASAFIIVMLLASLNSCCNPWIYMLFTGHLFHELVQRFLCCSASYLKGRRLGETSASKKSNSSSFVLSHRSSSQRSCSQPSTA
human vasopressin V1a receptor (human), sequence (P37288 whole entry): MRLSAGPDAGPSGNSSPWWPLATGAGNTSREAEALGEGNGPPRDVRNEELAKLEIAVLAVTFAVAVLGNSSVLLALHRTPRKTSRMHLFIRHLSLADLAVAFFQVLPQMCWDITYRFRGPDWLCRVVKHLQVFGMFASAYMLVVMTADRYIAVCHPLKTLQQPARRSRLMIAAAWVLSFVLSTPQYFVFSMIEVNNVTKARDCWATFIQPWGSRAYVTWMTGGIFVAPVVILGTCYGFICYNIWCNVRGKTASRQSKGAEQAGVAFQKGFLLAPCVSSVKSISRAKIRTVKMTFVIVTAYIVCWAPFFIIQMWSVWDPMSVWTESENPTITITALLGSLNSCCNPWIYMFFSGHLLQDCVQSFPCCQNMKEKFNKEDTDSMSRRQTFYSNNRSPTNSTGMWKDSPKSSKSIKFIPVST

Substance | tissue bath, contraction amplitude of strips of pregnant human myometrium, EC50 [1] [nM] | maximal intracellular Ca2+ in human cardiomyocytes (FLIPR), EC50 [2] [nM] | FLIPR Ca2+ mobilization, Emax [3] [%]
Oxytocin (from UniProt P01178 20-28) (peptide) | 1.14 | 174 | –
d[Se-Se]-OT-OH (peptide) | – | – | 59
